Data published in publication PMC7564666 (2020).

B1: GST-LASP1 (full length LIM and SH3 Protein 1, residues 1–261) [human] / argonaute 2 (Ago2), endogenous [human (endogenous in MDA-MB-231 variants 231S and Bone-Un)] (parent complex)
chain 1: MNPNCARCGKIVYPTEKVNCLDKFWHKACFHCETCKMTLNMKNYKGYEKKPYCNAHYPKQSFTMVADTPENLRLKQQSELQSQVRYKEEFEKNKGKGFSVVADTPELQRIKKTQDQISNIKYHEEFEKSRMGPSGGEGMEPERRDSQDGSSYRRPLEQQQPHHIPTSAPVYQQPQQQPVAQSYGGYKEPAAPVSIQRSAPGGGGKRYRAVYDYSAADEDEVSFQDGDTIVNVQQIDDGWMYGTVERTGDTGMLPANYVEAI
chain 2: not shown

Variants of: B1
Experiment: GST pull-down with purified proteins (direct binding), immunoblot; 100 ng of purified recombinant Ago2; 1.5 nmol of purified LASP1 double mutants; high exposure blot; parent: 1
Variant chain 1 S146D, chain 1 Y171F has a ratio to parent of 0.34. chain 1 S146D, chain 1 Y171D was tested, and the ratio to parent was 0.58.

Variants of: B1
Experiment: GST pull-down, immunoblot; 1 mg of Bone-Un LASP1-KO total lysate; 1.5 nmol of each of the double-mutants; parent: 1
With chain 1 S146D, chain 1 Y171D the ratio to parent was 0.9. Work on chain 1 S146A, chain 1 Y171F yielded a ratio to parent of 1.29. In the case of chain 1 S146A, chain 1 Y171D, the ratio to parent is reported as 1.82.

Variants of: B1
Experiment: GST pull-down, immunoblot; 1 mg of Bone-Un LASP1 KO total lysate; 1.5 nmol of each LASP1 single-mutant protein; parent: 1
chain 1 S146D gave a ratio to parent of 3.23. Variant chain 1 S146A has a ratio to parent of 4.79. Work on chain 1 Y171D yielded a ratio to parent of 5. Variant chain 1 Y171F has a ratio to parent of 0.27.

Variants of: B1
Experiment: GST pull-down with purified proteins (direct binding), immunoblot; 100 ng of purified recombinant Ago2; 1.5 nmol of each purified single-mutant protein; high exposure blot; parent: 1
Work on chain 1 S146D yielded a ratio to parent of 0.39. Variant chain 1 Y171D has a ratio to parent of 0.61. Variant chain 1 Y171F has a ratio to parent of 0.08.

Variants of: B1
Experiment: GST pull-down with purified proteins (direct binding), immunoblot; 100 ng of purified recombinant Ago2; 1.5 nmol of purified LASP1 double mutants; low exposure blot; parent: 1
For chain 1 S146A, chain 1 Y171F, the ratio to parent was 1.6. chain 1 S146A, chain 1 Y171D showed a ratio to parent of 3.98.
